Results reported in patent publication US11267868 (dated 2022).
Where a chain is given by its changes, count along the chain named.

T1: FcgRIIaH (human, UniProt P12318)
T1 chain: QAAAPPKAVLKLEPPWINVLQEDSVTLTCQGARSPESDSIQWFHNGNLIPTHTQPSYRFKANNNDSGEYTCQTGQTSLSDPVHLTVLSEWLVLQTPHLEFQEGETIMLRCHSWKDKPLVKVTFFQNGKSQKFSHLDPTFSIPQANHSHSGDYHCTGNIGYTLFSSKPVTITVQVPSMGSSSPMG

T2: FcgRIIb (human, UniProt P31994)
T2 chain: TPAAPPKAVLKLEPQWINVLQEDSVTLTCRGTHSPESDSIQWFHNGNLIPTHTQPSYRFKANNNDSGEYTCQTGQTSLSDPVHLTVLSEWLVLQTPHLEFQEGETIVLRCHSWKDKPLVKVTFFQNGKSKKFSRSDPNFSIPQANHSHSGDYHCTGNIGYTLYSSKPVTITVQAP

T3: FcgRIa (human, UniProt P12314)
T3 chain: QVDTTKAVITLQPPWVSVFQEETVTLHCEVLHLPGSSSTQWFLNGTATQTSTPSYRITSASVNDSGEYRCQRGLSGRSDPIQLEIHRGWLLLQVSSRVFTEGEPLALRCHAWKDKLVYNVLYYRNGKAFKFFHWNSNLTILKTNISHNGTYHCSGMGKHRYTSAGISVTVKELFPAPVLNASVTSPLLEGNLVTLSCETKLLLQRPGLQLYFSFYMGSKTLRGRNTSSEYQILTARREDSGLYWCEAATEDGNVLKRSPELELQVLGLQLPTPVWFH

T4: FcgRIIaR (human, UniProt P12318)
T4 chain: T1 chain with H134R

B1: IL6R-P729/IL6R-L (antibody)
chain 1: QVQLQESGPGLVKPSETLSLTCAVSGHSISHDHAWSWVRQPPGEGLEWIGFISYSGITNYNPSLQGRVTISRDNSKNTLYLQMNSLRAEDTAVYYCARSLARTTAMDYWGEGTLVTVSSASTKGPSVFPLAPSSKSTSGGTAALGCLVKDYFPEPVTVSWNSGALTSGVHTFPAVLQSSGLYSLSSVVTVPSSSLGTQTYICNVNHKPSNTKVDKKVEPKSCDKTHTCPPCPAPELFGQDSVMLFPPKPKDTLMISRTPEVTCVVVDVSPEDPEVKFNWYVDGVEVHNAKTKPREEQENSTYRVVSVLTVLHQDWLNGKEYKCKVSNKALPAPIEKTISKAKGQPREPQVYTLPPSRDELTKNQVSLTCLVKGFYPSDIAVEWESNGQPENNYKTTPPVLDSDGSFFLYSKLTVDKSRWQQGNVFSCSVMHEALHNHYTQKSLSLSP
chain 2: not shown
B2: IL6R-P687/IL6R-L (antibody)
chain 1: B1 chain 1 with F237L, Q239G, M243F, P270H, E298Y, S300A, S326N, A332H
chain 2: not shown
B3: IL6R-P661/IL6R-L (antibody)
chain 1: B1 chain 1 with F237L, Q239G, M243F, P270H, E298Y, S300A, A332H
chain 2: not shown
B4: IL6R-P605/IL6R-L (antibody)
chain 1: B1 chain 1 with F237L, Q239G, M243F, P270H, E298D, S300A
chain 2: not shown
B5: IL6R-P726/IL6R-L (antibody)
chain 1: B1 chain 1 with F237L, P270H, S326H, A332H
chain 2: not shown
B6: IL6R-P731/IL6R-L (antibody)
chain 1: B1 chain 1 with F237L, S326H
chain 2: not shown
B7: IL6R-P602/IL6R-L (antibody)
chain 1: B1 chain 1 with F237L, Q239G, P270H, Q297V
chain 2: not shown
B8: IL6R-P692/IL6R-L (antibody)
chain 1: B1 chain 1 with P270H, A332H
chain 2: not shown
B9: IL6R-P728/IL6R-L (antibody)
chain 1: B1 chain 1 with P270H, S326H
chain 2: not shown
B10: IL6R-P733/IL6R-L (antibody)
chain 1: B1 chain 1 with S326H
chain 2: not shown
B11: IL6R-P732/IL6R-L (antibody)
chain 1: B1 chain 1 with Q239G, S326H
chain 2: not shown
B12: IL6R-P655/IL6R-L (antibody)
chain 1: B1 chain 1 with F237L, Q239G, P270H, S326H
chain 2: not shown
B13: IL6R-P656/IL6R-L (antibody)
chain 1: B1 chain 1 with F237L, Q239G, P270H, A332H
chain 2: not shown
B14: IL6R-P653/IL6R-L (antibody)
chain 1: B1 chain 1 with F237L, Q239G
chain 2: not shown
B15: IL6R-P689/IL6R-L (antibody)
chain 1: B1 chain 1 with F237L, Q239G, S326H
chain 2: not shown
B16: IL6R-P734/IL6R-L (antibody)
chain 1: B1 chain 1 with P270H, S326H, A332H
chain 2: not shown
B17: IL6R-P603/IL6R-L (antibody)
chain 1: B1 chain 1 with F237L, Q239G, P270H, V325I
chain 2: not shown
B18: IL6R-P691/IL6R-L (antibody)
chain 1: B1 chain 1 with P270H
chain 2: not shown
B19: IL6R-P660/IL6R-L (antibody)
chain 1: B1 chain 1 with F237L, Q239G, M243F, P270H, E298Y, S300A, S326N
chain 2: not shown
B20: IL6R-P727/IL6R-L (antibody)
chain 1: B1 chain 1 with F237L, A332H
chain 2: not shown
B21: IL6R-P604/IL6R-L (antibody)
chain 1: B1 chain 1 with F237L, Q239G, P270H, S300A
chain 2: not shown
B22: IL6R-P659/IL6R-L (antibody)
chain 1: B1 chain 1 with F237L, P270H
chain 2: not shown
B23: IL6R-P591/IL6R-L (antibody)
chain 1: B1 chain 1 with F237L, Q239G, P270H
chain 2: not shown
B24: IL6R-P654/IL6R-L (antibody)
chain 1: B1 chain 1 with F237L, Q239G, P270H, S326N
chain 2: not shown
B25: IL6R-P735/IL6R-L (antibody)
chain 1: B1 chain 1 with A332H
chain 2: not shown
B26: IL6R-P693/IL6R-L (antibody)
chain 1: B1 chain 1 with F237L, Q239G, M243F, P270H, S300A
chain 2: not shown
B27: IL6R-P690/IL6R-L (antibody)
chain 1: B1 chain 1 with F237L, P270H, A332H
chain 2: not shown
B28: IL6R-P658/IL6R-L (antibody)
chain 1: B1 chain 1 with Q239G, P270H
chain 2: not shown
B29: IL6R-P737/IL6R-L (antibody)
chain 1: B1 chain 1 with F237L, S326H, A332H
chain 2: not shown
B30: IL6R-P657/IL6R-L (antibody)
chain 1: B1 chain 1 with F237L, Q239G, P270H, A332Y
chain 2: not shown
B31: IL6R-P688/IL6R-L (antibody)
chain 1: B1 chain 1 with F237L, Q239G, S326N
chain 2: not shown

Biological target: T1, FcgRIIaH
Assay: SPR

Point of comparison: B28, Kd 96 µM. Against it:
- B1 — 1.9-fold higher, 180 µM
- B2 — within 1.5-fold, 130 µM
- B3 — within 1.5-fold, 94 µM
- B4 — within 1.5-fold, 130 µM
- B5 — 1.6-fold lower, 61 µM
- B6 — 1.6-fold higher, 150 µM
- B7 — within 1.5-fold, 100 µM
- B8 — within 1.5-fold, 120 µM
- B9 — within 1.5-fold, 81 µM
- B10 — 1.9-fold higher, 180 µM
- B11 — within 1.5-fold, 100 µM
- B12 — 1.7-fold lower, 58 µM
- B13 — within 1.5-fold, 84 µM
- B14 — within 1.5-fold, 110 µM
- B15 — within 1.5-fold, 120 µM
- B16 — within 1.5-fold, 84 µM
- B17 — within 1.5-fold, 110 µM
- B18 — within 1.5-fold, 130 µM
- B19 — within 1.5-fold, 110 µM
- B20 — 1.6-fold higher, 150 µM
- B21 — within 1.5-fold, 120 µM
- B22 — 1.7-fold higher, 160 µM
- B23 — within 1.5-fold, 86 µM
- B24 — within 1.5-fold, 68 µM
- B25 — within 1.5-fold, 140 µM
- B26 — 1.6-fold higher, 150 µM
- B27 — within 1.5-fold, 140 µM
- B29 — 1.7-fold higher, 160 µM
- B30 — within 1.5-fold, 110 µM
- B31 — within 1.5-fold, 110 µM

Biological target: T2, FcgRIIb
Assay: SPR

Point of comparison: B18, Kd 4.3 µM. Against it:
- B1 — within 1.5-fold, 4.4 µM
- B2 — within 1.5-fold, 5.1 µM
- B3 — within 1.5-fold, 4 µM
- B4 — within 1.5-fold, 5.3 µM
- B5 — within 1.5-fold, 4.1 µM
- B6 — 2.3-fold higher, 10 µM
- B7 — 1.8-fold lower, 2.4 µM
- B8 — 1.6-fold lower, 2.7 µM
- B9 — within 1.5-fold, 3.9 µM
- B10 — within 1.5-fold, 4.7 µM
- B11 — within 1.5-fold, 2.9 µM
- B12 — 1.6-fold lower, 2.7 µM
- B13 — 2.3-fold lower, 1.9 µM
- B14 — within 1.5-fold, 3.5 µM
- B15 — within 1.5-fold, 4.7 µM
- B16 — 1.7-fold lower, 2.5 µM
- B17 — 1.6-fold lower, 2.7 µM
- B19 — within 1.5-fold, 5.3 µM
- B20 — within 1.5-fold, 4.8 µM
- B21 — within 1.5-fold, 5.5 µM
- B22 — within 1.5-fold, 6.4 µM
- B23 — within 1.5-fold, 3.1 µM
- B24 — 1.7-fold lower, 2.6 µM
- B25 — 1.9-fold lower, 2.3 µM
- B26 — within 1.5-fold, 5.6 µM
- B27 — within 1.5-fold, 4 µM
- B28 — 3.1-fold lower, 1.4 µM
- B29 — within 1.5-fold, 6.4 µM
- B30 — within 1.5-fold, 3.1 µM
- B31 — within 1.5-fold, 4.1 µM

Biological target: T3, FcgRIa
Assay: SPR

Point of comparison: B11, Kd 700 nM. Against it:
- B1 — within 1.5-fold, 660 nM
- B2 — 100-fold lower, 7 nM
- B3 — 70-fold lower, 10 nM
- B4 — 81-fold lower, 8.6 nM
- B5 — 3.7-fold lower, 190 nM
- B6 — 10-fold lower, 68 nM
- B7 — 37-fold lower, 19 nM
- B8 — within 1.5-fold, 530 nM
- B9 — within 1.5-fold, 580 nM
- B10 — 3.6-fold higher, 2500 nM
- B12 — 39-fold lower, 18 nM
- B13 — 25-fold lower, 28 nM
- B14 — 39-fold lower, 18 nM
- B15 — 25-fold lower, 28 nM
- B16 — 3.2-fold lower, 220 nM
- B17 — 32-fold lower, 22 nM
- B18 — within 1.5-fold, 760 nM
- B19 — 95-fold lower, 7.4 nM
- B20 — 3-fold lower, 230 nM
- B22 — 8.8-fold lower, 80 nM
- B23 — 29-fold lower, 24 nM
- B24 — 44-fold lower, 16 nM
- B25 — 2.7-fold lower, 260 nM
- B26 — 90-fold lower, 7.8 nM
- B27 — 2.3-fold lower, 310 nM
- B28 — within 1.5-fold, 830 nM
- B29 — 4.1-fold lower, 170 nM
- B30 — 41-fold lower, 17 nM

Biological target: T4, FcgRIIaR
Assay: SPR

Point of comparison: B28, Kd 33 µM. Against it:
- B1 — 2.5-fold higher, 83 µM
- B2 — 2.5-fold higher, 81 µM
- B3 — within 1.5-fold, 41 µM
- B4 — 1.8-fold higher, 60 µM
- B5 — 2-fold higher, 66 µM
- B6 — 3.3-fold higher, 110 µM
- B7 — within 1.5-fold, 44 µM
- B8 — 1.7-fold higher, 56 µM
- B9 — 2.2-fold higher, 74 µM
- B10 — 3.9-fold higher, 130 µM
- B11 — 2.2-fold higher, 72 µM
- B12 — within 1.5-fold, 42 µM
- B13 — within 1.5-fold, 39 µM
- B14 — 1.5-fold higher, 51 µM
- B15 — 2.4-fold higher, 78 µM
- B16 — 2.1-fold higher, 68 µM
- B17 — within 1.5-fold, 47 µM
- B18 — 2.2-fold higher, 72 µM
- B19 — 1.5-fold higher, 50 µM
- B20 — 3-fold higher, 100 µM
- B21 — 1.9-fold higher, 64 µM
- B22 — 2.6-fold higher, 85 µM
- B23 — within 1.5-fold, 37 µM
- B24 — within 1.5-fold, 39 µM
- B25 — 1.8-fold higher, 59 µM
- B26 — 2.1-fold higher, 68 µM
- B27 — 2.2-fold higher, 74 µM
- B29 — 3.6-fold higher, 120 µM
- B30 — within 1.5-fold, 47 µM
- B31 — 1.8-fold higher, 58 µM

The binders below were run against FcgRIIIaV (human, UniProt P08637) (assay: SPR).
Sequence of FcgRIIIaV (P08637 17-208 F176V): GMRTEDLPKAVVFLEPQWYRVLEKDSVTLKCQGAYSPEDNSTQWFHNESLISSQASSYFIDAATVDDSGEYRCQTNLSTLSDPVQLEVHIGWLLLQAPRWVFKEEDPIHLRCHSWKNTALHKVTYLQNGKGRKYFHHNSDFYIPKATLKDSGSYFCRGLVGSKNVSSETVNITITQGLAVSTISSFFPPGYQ

Point of comparison: B6, Kd 53 µM. Against it:
- B1 — within 1.5-fold, 56 µM
- B2 — within 1.5-fold, 42 µM
- B3 — 1.8-fold lower, 29 µM
- B4 — within 1.5-fold, 44 µM
- B5 — within 1.5-fold, 36 µM
- B7 — within 1.5-fold, 61 µM
- B8 — within 1.5-fold, 57 µM
- B9 — within 1.5-fold, 50 µM
- B10 — within 1.5-fold, 77 µM
- B11 — within 1.5-fold, 76 µM
- B12 — within 1.5-fold, 46 µM
- B13 — within 1.5-fold, 50 µM
- B14 — within 1.5-fold, 50 µM
- B15 — within 1.5-fold, 52 µM
- B16 — 1.9-fold higher, 100 µM
- B17 — 1.6-fold higher, 83 µM
- B18 — within 1.5-fold, 48 µM
- B19 — 1.8-fold lower, 30 µM
- B20 — within 1.5-fold, 66 µM
- B21 — within 1.5-fold, 40 µM
- B22 — within 1.5-fold, 73 µM
- B23 — within 1.5-fold, 44 µM
- B24 — within 1.5-fold, 48 µM
- B25 — within 1.5-fold, 73 µM
- B26 — within 1.5-fold, 40 µM
- B27 — within 1.5-fold, 63 µM
- B28 — within 1.5-fold, 71 µM
- B29 — within 1.5-fold, 68 µM
- B30 — within 1.5-fold, 65 µM
- B31 — within 1.5-fold, 44 µM
